Article PMC3078644

Molecular target: Sortilin (immobilised for SPR) (UniProt Q99523)
Experiment: SPR

Chain of Sortilin (immobilised for SPR) (P20783 whole entry): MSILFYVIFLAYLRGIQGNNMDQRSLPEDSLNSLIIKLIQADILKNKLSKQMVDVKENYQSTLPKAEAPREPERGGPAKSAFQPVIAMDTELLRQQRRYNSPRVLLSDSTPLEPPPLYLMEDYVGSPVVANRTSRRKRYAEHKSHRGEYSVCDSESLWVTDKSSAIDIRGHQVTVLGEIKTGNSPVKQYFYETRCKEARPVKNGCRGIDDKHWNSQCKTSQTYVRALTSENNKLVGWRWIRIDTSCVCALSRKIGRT

- Kd: 20 nM
Substance: GST-NT3pro (prodomain of proNT3 fused to glutathione-S-transferase) (domain or fragment; other documents disagree on this pair)
